According to patent publication US7560527:

Target: natural cellular receptor for adenovirus on 293 human cells (human)
Assay: cell-based or functional assay

With “native Ad5 fiber carried by the recombinant AdLacZ virus (from UniProt P11818 1-581)” the degree of inhibition of the infection of 293-cells with AdLacZ by recombinant Ad5 knob at 100 µg/ml was 95%.
